T1: BMP9 as used in biolayer interferometry (human) (UniProt Q9UK05)
T1 sequence (Q9UK05 320-429, looked up): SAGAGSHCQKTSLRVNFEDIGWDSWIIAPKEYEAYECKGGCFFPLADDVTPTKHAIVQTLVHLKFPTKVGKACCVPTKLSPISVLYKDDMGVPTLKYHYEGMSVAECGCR

B1: unfused (non-mMBP fused) wild-type OR, ENG E26-S337 (domain or fragment)
chain: ETVHCDLQPVGPERGEVTYTTSQVSKGCVAQAPNAILEVHVLFLEFPTGPSQLELTLQASKQNGTWPREVLLVLSVNSSVFLHLQALGIPLHLAYNSSLVTFQEPPGVNTTELPSFPKTQILEWAAERGPITSAAELNDPQSILLRLGQAQGSLSFCMLEASQDMGRTLEWRPRTPALVRGCHLEGVAGHKEAHILRVLPGHSAGPRTVTVKVELSCAPGDLDAVLILQGPPYVSWLIDANHNMQIWTTGEYSFKIFPEKNIRGFKLPDTPQGLLGEARMLNASIVASFVELPLASIVSLHASSCGGRLQTS
B2: ^MOR as used in biolayer interferometry (domain or fragment)
chain: B1 chain
B3: bone morphogenetic protein 9 (BMP9), mature homodimer, untagged, expressed in HEK293 cells (ligand, human, UniProt Q9UK05 320-429, looked up)
chain: T1 sequence (Q9UK05 320-429, looked up)
B4: full-length ectodomain of ENG (ECTO) as used in biolayer interferometry (receptor)
chain: ETVHCDLQPVGPERGEVTYTTSQVSKGCVAQAPNAILEVHVLFLEFPTGPSQLELTLQASKQNGTWPREVLLVLSVNSSVFLHLQALGIPLHLAYNSSLVTFQEPPGVNTTELPSFPKTQILEWAAERGPITSAAELNDPQSILLRLGQAQGSLSFCMLEASQDMGRTLEWRPRTPALVRGCHLEGVAGHKEAHILRVLPGHSAGPRTVTVKVELSCAPGDLDAVLILQGPPYVSWLIDANHNMQIWTTGEYSFKIFPEKNIRGFKLPDTPQGLLGEARMLNASIVASFVELPLASIVSLHASSCGGRLQTSPAPIQTTPPKDTCSPELLMSLIQTKCADDAMTLVLKKELVAHLKCTITGLTFWDPSCEAEDRGDKFVLRSAYSSCGMQVSASMISNEAVVNILSSSSPQRKKVHCLNMDSLSFQLGLYLSPHFLQASNTIEPGQQSFVQVRVSPSVSEFLLQLDSCHLDLGPEGGTVELIQGRAAKGNCVSLLSPSPEGDPRFSFLLHFYTVPIPKTGTLSCTVALRPKTGSQDQEVHRTVFMRLNIISPDLSGCTSKG
B5: His-ECTO (His-tagged ENG ectodomain) of the purified His-ECTO-BMP9 complex (receptor, human, UniProt P17813 26-586, looked up)
chain: B4 chain
B6: ECTO-Myc (Myc-tagged ENG ectodomain) (receptor, human, UniProt P17813 26-586, looked up)
chain: B4 chain
B7: His-^MECTO (His-tagged, mMBP-fused ENG ectodomain) (receptor, human, UniProt P17813 26-586, looked up)
chain: B4 chain
B8: ^MZP (mMBP-fused ENG P338-G581, zona pellucida module) (domain or fragment, human, UniProt P17813 338-581, looked up)
chain: PAPIQTTPPKDTCSPELLMSLIQTKCADDAMTLVLKKELVAHLKCTITGLTFWDPSCEAEDRGDKFVLRSAYSSCGMQVSASMISNEAVVNILSSSSPQRKKVHCLNMDSLSFQLGLYLSPHFLQASNTIEPGQQSFVQVRVSPSVSEFLLQLDSCHLDLGPEGGTVELIQGRAAKGNCVSLLSPSPEGDPRFSFLLHFYTVPIPKTGTLSCTVALRPKTGSQDQEVHRTVFMRLNIISPDLSG

What was measured:
[1] = molecular target: T1, BMP9 as used in biolayer interferometry (human); experiment: BLI
[2] = molecular target: B5; experiment: SEC-MALS
[3] = molecular target: the molecule itself; experiment: SEC-MALS
[4] = molecular target: the molecule itself; experiment: non-reducing SDS-PAGE and immunoblot

Row | Kd [1] [nM] | koff [1] [s⁻¹] | kon [1] [M⁻¹ s⁻¹] | Binder | stoichiometry N [4] | other results
1 | 295 | 0.0871 | 295000 | B1 |  | 
2 | 179 | 0.0622 | 349000 | B2 |  | 
3 |  |  |  | B3 |  | stoichiometry N [2]: 1 2:2 (ENG chains : BMP9 chains)
4 | 9.81 | 0.00198 | 200000 | B4 |  | 
5 |  |  |  | B5 |  | stoichiometry N [3]: 2
6 |  |  |  | B6 | 2 | 
7 |  |  |  | B7 | 2 | 
8 |  |  |  | B8 | 2 | 
